Here are results for one substance from patent US20190328887A1.

This experiment addresses human oxytocin receptor (human) (UniProt P30559).
Chain of UniProt P30559 (P30559 whole entry): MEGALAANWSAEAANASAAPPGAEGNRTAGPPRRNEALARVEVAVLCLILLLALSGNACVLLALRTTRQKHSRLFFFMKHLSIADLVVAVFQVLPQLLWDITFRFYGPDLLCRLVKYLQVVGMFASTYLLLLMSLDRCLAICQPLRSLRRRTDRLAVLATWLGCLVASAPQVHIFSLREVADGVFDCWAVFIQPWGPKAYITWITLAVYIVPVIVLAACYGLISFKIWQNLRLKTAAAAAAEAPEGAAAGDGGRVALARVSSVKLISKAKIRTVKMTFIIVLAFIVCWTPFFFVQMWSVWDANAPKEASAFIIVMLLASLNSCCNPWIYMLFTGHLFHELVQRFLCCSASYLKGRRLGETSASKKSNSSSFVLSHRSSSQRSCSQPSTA

Take Oxytocin (peptide): the EC50 Ca2+ production amounted to 42 nM.
